Results: patent publication US20090170219

Tested on: IgG Fc fragment (IgG-Fc) (human), P01857-1
Experiment: SPR
Conditions: 2'-F at all pyrimidines; solution A

| Sequence | Kd |
| --- | --- |
| GGGACACAAUGGACGAAAGGUGCUCCAACUAAAUUUGGAACUUUCCACCCAUAAUAACGGCCGACAUGAGAG [SEQ ID NO:8] | 7000 pM |
| GGGACACAAUGGACGACUACAAGGUGCUCCUUGAAAUGUUAAAUGAGGAACUUGUAACGGCCGACAUGAGAG [SEQ ID NO:5] | 0.6 pM |
| GGGACACAAUGGACGAGUUACAGGUGCUCCAUCAACAAAAUGUUACAUGGAACUGUAACGGCCGACAUGAGAG [SEQ ID NO:1] | 1.1 pM |
| GGGACACAAUGGACGGCCAACGUUAACUGGAACUGUAAAUCAGGUGCUCGAGAUAACGGCCGACAUGAGAG [SEQ ID NO:4] | 6 pM |
| GGGACACAAUGGACGGCGUAAAAUGGAACCUGGGUUAGAAUAUCGGGGGUGCUCCGUAACGGCCGACAUGAGAG [SEQ ID NO:3] | 0.5 pM |
| GGGACACAAUGGACGGCUGGUAAGGUGCUCGGAAUGGAACUCGUCAUUCGGAACUUAACGGCCGACAUGAGAG [SEQ ID NO:6] | 3000 pM |
| GGGACACAAUGGACGGGUGUUACAGGUGCUUGAUAAAGGUAGAAAAUCAAACUGUAACGGCCGACAUGAGAG [SEQ ID NO:7] | 1 pM |
| GGGACACAAUGGACGUCAAAGAAGAGGUGCUCUGCGAGCCACGCGGAACUCUAUAACGGCCGACAUGAGAG [SEQ ID NO:2] | 7400 pM |
